Test results from IntAct's records for PubMed 31046837.

Biological target: at2a2_mouse Atp2a2 (UniProt O55143)
Sequence (O55143 whole entry): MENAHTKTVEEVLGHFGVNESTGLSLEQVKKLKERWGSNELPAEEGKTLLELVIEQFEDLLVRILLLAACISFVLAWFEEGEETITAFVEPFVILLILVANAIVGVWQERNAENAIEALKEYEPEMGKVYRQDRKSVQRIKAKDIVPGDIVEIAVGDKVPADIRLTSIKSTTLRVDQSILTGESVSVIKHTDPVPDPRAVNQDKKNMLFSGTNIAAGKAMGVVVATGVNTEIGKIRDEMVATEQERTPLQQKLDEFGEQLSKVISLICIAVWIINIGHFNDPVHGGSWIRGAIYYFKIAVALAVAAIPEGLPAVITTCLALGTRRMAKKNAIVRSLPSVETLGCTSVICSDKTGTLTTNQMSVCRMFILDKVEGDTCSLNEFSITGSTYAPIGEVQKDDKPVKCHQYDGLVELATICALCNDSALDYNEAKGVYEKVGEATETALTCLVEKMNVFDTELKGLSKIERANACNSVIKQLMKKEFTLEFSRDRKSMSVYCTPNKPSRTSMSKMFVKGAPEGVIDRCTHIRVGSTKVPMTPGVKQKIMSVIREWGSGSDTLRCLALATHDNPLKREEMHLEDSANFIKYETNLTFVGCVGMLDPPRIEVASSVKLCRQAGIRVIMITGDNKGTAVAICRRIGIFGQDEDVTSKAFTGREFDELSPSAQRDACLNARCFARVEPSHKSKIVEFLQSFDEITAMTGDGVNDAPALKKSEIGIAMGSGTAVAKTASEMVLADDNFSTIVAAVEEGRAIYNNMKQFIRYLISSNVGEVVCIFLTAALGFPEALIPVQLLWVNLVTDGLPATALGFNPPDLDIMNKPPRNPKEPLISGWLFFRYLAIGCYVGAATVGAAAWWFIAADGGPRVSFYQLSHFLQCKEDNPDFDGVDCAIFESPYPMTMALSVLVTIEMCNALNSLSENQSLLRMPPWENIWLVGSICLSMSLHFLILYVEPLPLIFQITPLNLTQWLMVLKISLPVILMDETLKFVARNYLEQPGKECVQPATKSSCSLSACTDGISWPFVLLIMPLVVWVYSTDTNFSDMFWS

effect of a mutation on the interaction: increasing interaction strength
Substance: Leucine-rich repeat serine/threonine-protein kinase 2 (Homo sapiens), Q5S007 G2019S
